Tested on: Nc1ccn([C@@H]2O[C@H](CO)[C@@H](O)C2(F)F)c(=O)n1
Experiment: cells, lysate or membranes named
Settings: other: ATP donor, 10 nM dCK, no masitinib

Sequence of human deoxycytidine kinase (dCK) (Homo sapiens) (chain, as listed by the source): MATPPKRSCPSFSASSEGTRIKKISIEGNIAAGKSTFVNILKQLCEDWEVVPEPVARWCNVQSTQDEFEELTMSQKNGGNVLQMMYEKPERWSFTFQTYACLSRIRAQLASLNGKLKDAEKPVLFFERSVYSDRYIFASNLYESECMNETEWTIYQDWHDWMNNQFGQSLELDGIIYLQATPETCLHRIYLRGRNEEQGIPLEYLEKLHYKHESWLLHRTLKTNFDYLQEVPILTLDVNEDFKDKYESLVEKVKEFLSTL

human deoxycytidine kinase (dCK) (Homo sapiens)
Km: 1 ± 0.3 µM
